Laboratory results: US20210032351A1 (XDCEXPLORER SHANGHAI, published 2021)
Ends that are not written are not given here. * marks the point of attachment. Biotin = O=C1N[C@H]2[C@H](CS[C@H]2CCCCC(=O)*)N1

Key:
[1] = target: T1, pep20 (cysteine pairing not given here); assay: polypeptide dot matrix ELISA
T1 peptide: CGADSYEMEEDGVRKCK(Biotin)

[2] = target: T2, pep17; assay: polypeptide dot matrix ELISA
T2 peptide: VRACGADSYEMEEDGVK(Biotin)

[3] = target: T3, pep28 (cysteine pairing not given here); assay: polypeptide dot matrix ELISA
T3 peptide: EEDGVRKCKKCEGPCRK(Biotin)

[4] = target: T4, pep29 (cysteine pairing not given here); assay: polypeptide dot matrix ELISA
T4 peptide: EDGVRKCKKCEGPCRKK(Biotin)

[5] = target: T5, pep03; assay: polypeptide dot matrix ELISA
T5 peptide: EKKGNYVVTDHGSCVRK(Biotin)

[6] = target: T6, pep08 (cysteine pairing not given here); assay: polypeptide dot matrix ELISA
T6 peptide: YVVTDHGSCVRACGADK(Biotin)

[7] = target: T7, pep16 (cysteine pairing not given here); assay: polypeptide dot matrix ELISA
T7 peptide: CVRACGADSYEMEEDGK(Biotin)

[8] = target: T8, pep24 (cysteine pairing not given here); assay: polypeptide dot matrix ELISA
T8 peptide: SYEMEEDGVRKCKKCEK(Biotin)

[9] = target: T9, pep23 (cysteine pairing not given here); assay: polypeptide dot matrix ELISA
T9 peptide: DSYEMEEDGVRKCKKCK(Biotin)

[10] = target: T10, pep05 (cysteine pairing not given here); assay: polypeptide dot matrix ELISA
T10 peptide: KGNYVVTDHGSCVRACK(Biotin)

[11] = target: T11, pep09 (cysteine pairing not given here); assay: polypeptide dot matrix ELISA
T11 peptide: VVTDHGSCVRACGADSK(Biotin)

[12] = target: T12, pep06 (cysteine pairing not given here); assay: polypeptide dot matrix ELISA
T12 peptide: GNYVVTDHGSCVRACGK(Biotin)

[13] = target: T13, pep18; assay: polypeptide dot matrix ELISA
T13 peptide: RACGADSYEMEEDGVRK(Biotin)

[14] = target: T14, pep27 (cysteine pairing not given here); assay: polypeptide dot matrix ELISA
T14 peptide: MEEDGVRKCKKCEGPCK(Biotin)

[15] = target: T15, pep31 (cysteine pairing not given here); assay: polypeptide dot matrix ELISA
T15 peptide: GVRKCKKCEGPCRKVCK(Biotin)

[16] = target: T16, pep33 (cysteine pairing not given here); assay: polypeptide dot matrix ELISA
T16 peptide: RKCKKCEGPCRKVCNGK(Biotin)

[17] = target: T17, pep04; assay: polypeptide dot matrix ELISA
T17 peptide: KKGNYVVTDHGSCVRAK(Biotin)

[18] = target: T18, pep26 (cysteine pairing not given here); assay: polypeptide dot matrix ELISA
T18 peptide: EMEEDGVRKCKKCEGPK(Biotin)

[19] = target: T19, pep35 (cysteine pairing not given here); assay: polypeptide dot matrix ELISA
T19 peptide: CKKCEGPCRKVCNGIGK(Biotin)

[20] = target: T20, pep19; assay: polypeptide dot matrix ELISA
T20 peptide: ACGADSYEMEEDGVRKK(Biotin)

[21] = target: T21, pep01; assay: polypeptide dot matrix ELISA
T21 peptide: LEEKKGNYVVTDHGSCK(Biotin)

[22] = target: T22, pep12 (cysteine pairing not given here); assay: polypeptide dot matrix ELISA
T22 peptide: DHGSCVRACGADSYEMK(Biotin)

[23] = target: T23, pep30 (cysteine pairing not given here); assay: polypeptide dot matrix ELISA
T23 peptide: DGVRKCKKCEGPCRKVK(Biotin)

[24] = target: T24, pep22; assay: polypeptide dot matrix ELISA
T24 peptide: ADSYEMEEDGVRKCKKK(Biotin)

[25] = target: T25, pep32 (cysteine pairing not given here); assay: polypeptide dot matrix ELISA
T25 peptide: VRKCKKCEGPCRKVCNK(Biotin)

[26] = target: T26, pep02; assay: polypeptide dot matrix ELISA
T26 peptide: EEKKGNYVVTDHGSCVK(Biotin)

[27] = target: T27, pep15 (cysteine pairing not given here); assay: polypeptide dot matrix ELISA
T27 peptide: SCVRACGADSYEMEEDK(Biotin)

[28] = target: T28, pep34 (cysteine pairing not given here); assay: polypeptide dot matrix ELISA
T28 peptide: KCKKCEGPCRKVCNGIK(Biotin)

[29] = target: T29, pep07 (cysteine pairing not given here); assay: polypeptide dot matrix ELISA
T29 peptide: NYVVTDHGSCVRACGAK(Biotin)

[30] = target: T30, pep14 (cysteine pairing not given here); assay: polypeptide dot matrix ELISA
T30 peptide: GSCVRACGADSYEMEEK(Biotin)

[31] = target: T31, human EGFRvIII-hFc protein (human, UniProt P00533 25-645); assay: ELISA, coated EGFRvIII-hFc, antibody 100 nM
T31 construct: extracellular domain; made in HEK293 cells, purified on protein A; also called immunogen A; hFc-tagged EGFRvIII protein; not shown: human IgG Fc fragment (hFc) of the pCpC vector
Method in brief: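 The antibody is applied to BSA-blocked wells pre-coated with EGFRvIII-hFc (1.0 μg/mL, overnight, 4° C) for 2 h at 37° C. Detection uses an HRP secondary (2 h, 37° C), TMB for 30 min, HCl stop and absorbance at 450 nm.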

B1: Murine anti-75G7 (antibody, V domains shown)
VH: EVQLQQSGPELVKPGASVKIPCKASGYTFTDYNMDWVKQSHGKSLEWIGDINPNNGDTIYNQKFKGKATLTVDKSSSTAYMELRSLTSEDTAVYYCARGDYDGYYPVYYAMDYWGQGTSVTVSS
VL: ENVLTQSPAIMSASPGEKVTMTCRASSSVSSSYLHWYQQKSGASPKLWIFSTSNLAAGVPARFSGSGSGTSYSLTVSSVEAEDAATYYCQQYSGYPLTFGAGTKLELK
notes: murine hybridoma antibody; also called 75G7C6
no binding: binding result [1] | binding result [2] | binding result [3] | binding result [4] | binding result [5] | binding result [6] | binding result [7] | binding result [8] | binding result [9] | binding result [10] | binding result [11] | binding result [12] | binding result [13] | binding result [14] | binding result [15] | binding result [16] | binding result [17] | binding result [18] | binding result [19] | binding result [20] | binding result [21] | binding result [22] | binding result [23] | binding result [24] | binding result [25] | binding result [26] | binding result [27] | binding result [28] | binding result [29] | binding result [30]
0.56: OD450 nm [31]
